# Test results taken from patent publication US20240400654A1.
# Changes are numbered by the printed parent chain. Numbers in names are those of the source. Where “and” joins values, the source holds several entries; their conditions need not be identical. Equal entries are not always repeated.
# B1: KB001 mouse Fab variant VL A56S (Fab, V domains shown)
# VH: EVQLKQSGPGLVAPSQSLSITCTVSGFSLSIYSVHWVRQPPGKGLEWLGMIWGGGSSDYNSALKSRLSISKDNSKSQVFLKMNSLQTDDTAMYYCARNGNFYAMDYWGQGTSVTVSS
# VL: QIVLTQSPAIMSASLGERVTMTCTASSSVSSSFLHWYQQKPGSSPQLWIYSTSNLSSGVPARFSGSGSGTSYSLTISSMEAEDAATYYCHQYHHSPYIYTFGGGTKLEIK
# B2: KB001 mouse Fab variant VL A56P (Fab, V domains shown)
# VH: B1 VH
# VL: B1 VL with S56P
# B3: KB001 mouse Fab variant VL A56M (Fab, V domains shown)
# VH: B1 VH
# VL: B1 VL with S56M
# B4: KB001 mouse Fab variant VL S57A (Fab, V domains shown)
# VH: B1 VH
# VL: B1 VL with S56A, S57A
# B5: KB001 mouse Fab variant VL S57L (Fab, V domains shown)
# VH: B1 VH
# VL: B1 VL with S56A, S57L
# B6: KB001 mouse Fab variant VL S57F (Fab, V domains shown)
# VH: B1 VH
# VL: B1 VL with S56A, S57F
# B7: KB001 mouse Fab variant VL S57I (Fab, V domains shown)
# VH: B1 VH
# VL: B1 VL with S56A, S57I
# B8: KB001 mouse Fab variant VL S57Q (Fab, V domains shown)
# VH: B1 VH
# VL: B1 VL with S56A, S57Q
# B9: KB001 mouse Fab variant VL S57N (Fab, V domains shown)
# VH: B1 VH
# VL: B1 VL with S56A, S57N
# B10: KB001 mouse Fab variant VL S57K (Fab, V domains shown)
# VH: B1 VH
# VL: B1 VL with S56A, S57K
# B11: KB001 mouse Fab variant VL S57W (Fab, V domains shown)
# VH: B1 VH
# VL: B1 VL with S56A, S57W
# B12: KB001 mouse Fab variant VL S57E (Fab, V domains shown)
# VH: B1 VH
# VL: B1 VL with S56A, S57E
# B13: KB001 mouse Fab variant VL S57R (Fab, V domains shown)
# VH: B1 VH
# VL: B1 VL with S56A, S57R
# B14: KB001 mouse Fab variant VL S57M (Fab, V domains shown)
# VH: B1 VH
# VL: B1 VL with S56A, S57M
# B15: KB001 mouse Fab variant VL H90L (Fab, V domains shown)
# VH: B1 VH
# VL: B1 VL with S56A, H90L
# B16: KB001 mouse Fab variant VL H90W (Fab, V domains shown)
# VH: B1 VH
# VL: B1 VL with S56A, H90W
# B17: KB001 mouse Fab variant VL Q91M (Fab, V domains shown)
# VH: B1 VH
# VL: B1 VL with S56A, Q91M
# B18: KB001 mouse Fab variant VL Q91E (Fab, V domains shown)
# VH: B1 VH
# VL: B1 VL with S56A, Q91E
# B19: KB001 mouse Fab variant VL Y92D (Fab, V domains shown)
# VH: B1 VH
# VL: B1 VL with S56A, Y92D
# B20: KB001 mouse Fab variant VL Y92N (Fab, V domains shown)
# VH: B1 VH
# VL: B1 VL with S56A, Y92N
# B21: KB001 mouse Fab variant VL H93N (Fab, V domains shown)
# VH: B1 VH
# VL: B1 VL with S56A, H93N
# B22: KB001 mouse Fab variant VL H94Y (Fab, V domains shown)
# VH: B1 VH
# VL: B1 VL with S56A, H94Y
# B23: KB001 mouse Fab variant VL H94F (Fab, V domains shown)
# VH: B1 VH
# VL: B1 VL with S56A, H94F
# B24: KB001 mouse Fab variant VL S95F (Fab, V domains shown)
# VH: B1 VH
# VL: B1 VL with S56A, S95F
# B25: KB001 mouse Fab variant VL S95E (Fab, V domains shown)
# VH: B1 VH
# VL: B1 VL with S56A, S95E
# B26: KB001 mouse Fab variant VL S95Q (Fab, V domains shown)
# VH: B1 VH
# VL: B1 VL with S56A, S95Q
# B27: KB001 mouse Fab variant VL S95W (Fab, V domains shown)
# VH: B1 VH
# VL: B1 VL with S56A, S95W
# B28: KB001 mouse Fab variant VL S95N (Fab, V domains shown)
# VH: B1 VH
# VL: B1 VL with S56A, S95N
# B29: KB001 mouse Fab variant VL S95A (Fab, V domains shown)
# VH: B1 VH
# VL: B1 VL with S56A, S95A
# B30: KB001 mouse Fab variant VL S95T (Fab, V domains shown)
# VH: B1 VH
# VL: B1 VL with S56A, S95T
# B31: KB001 parental mouse Fab (FASEBA), WT clone (Fab, V domains shown)
# VH: B1 VH
# VL: B1 VL with S56A
# B32: KB001 mouse Fab variant VL S95I (Fab, V domains shown)
# VH: B1 VH
# VL: B1 VL with S56A, S95I
# B33: KB001 mouse Fab variant VL S95H (Fab, V domains shown)
# VH: B1 VH
# VL: B1 VL with S56A, S95H
# B34: KB001 mouse Fab variant VL S95Y (Fab, V domains shown)
# VH: B1 VH
# VL: B1 VL with S56A, S95Y
# B35: KB001 mouse Fab variant VL S95C (Fab, V domains shown)
# VH: B1 VH
# VL: B1 VL with S56A, S95C
# B36: KB001 mouse Fab variant VL Y97H (Fab, V domains shown)
# VH: B1 VH
# VL: B1 VL with S56A, Y97H
# B37: KB001 mouse Fab variant VL Y97Q (Fab, V domains shown)
# VH: B1 VH
# VL: B1 VL with S56A, Y97Q
# B38: KB001 mouse Fab variant VL Y97S (Fab, V domains shown)
# VH: B1 VH
# VL: B1 VL with S56A, Y97S
# B39: KB001 mouse Fab variant VL Y97R (Fab, V domains shown)
# VH: B1 VH
# VL: B1 VL with S56A, Y97R
# B40: KB001 mouse Fab variant VL Y97I (Fab, V domains shown)
# VH: B1 VH
# VL: B1 VL with S56A, Y97I
# B41: KB001 mouse Fab variant VL Y97K (Fab, V domains shown)
# VH: B1 VH
# VL: B1 VL with S56A, Y97K
# Biological target: HRgpA-6H (Porphyromonas gingivalis) (UniProt P28784)
# Assay: ELISA, FASEBA Fab supernatant on coated HRgpA-6H
# Sequence of UniProt P28784 (P28784 228-860 limits assumed): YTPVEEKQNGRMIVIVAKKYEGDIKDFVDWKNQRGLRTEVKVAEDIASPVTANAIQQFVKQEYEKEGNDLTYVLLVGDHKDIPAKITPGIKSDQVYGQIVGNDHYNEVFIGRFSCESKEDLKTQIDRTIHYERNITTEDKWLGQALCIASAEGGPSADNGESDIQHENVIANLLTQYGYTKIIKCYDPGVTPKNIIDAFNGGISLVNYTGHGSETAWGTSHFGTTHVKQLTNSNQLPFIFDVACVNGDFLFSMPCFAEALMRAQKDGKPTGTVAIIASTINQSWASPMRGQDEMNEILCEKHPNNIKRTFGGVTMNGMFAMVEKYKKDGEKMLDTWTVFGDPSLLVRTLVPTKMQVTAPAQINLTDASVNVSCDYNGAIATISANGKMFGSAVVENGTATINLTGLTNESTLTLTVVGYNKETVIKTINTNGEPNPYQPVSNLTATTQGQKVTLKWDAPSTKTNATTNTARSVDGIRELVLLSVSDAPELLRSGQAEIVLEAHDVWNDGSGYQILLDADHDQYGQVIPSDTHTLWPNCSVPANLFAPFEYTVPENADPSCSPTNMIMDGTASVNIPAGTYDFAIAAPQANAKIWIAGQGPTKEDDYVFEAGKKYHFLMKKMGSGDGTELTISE
row,Binder,OD450 nm
1,B1,0.772 and 0.751 and 0.774
2,B2,0.748
3,B3,0.802 and 0.701
4,B4,0.806
5,B5,0.781
6,B6,0.785 and 0.787 and 0.797
7,B7,0.791
8,B8,0.658
9,B9,0.813
10,B10,0.712
11,B11,0.784
12,B12,0.751
13,B13,0.746
14,B14,0.745
15,B15,0.785 and 0.694
16,B16,0.763
17,B17,0.757
18,B18,0.709 and 0.694 and 0.701
19,B19,0.758
20,B20,0.773
21,B21,0.857

row,Binder,OD450 nm
1,B22,0.865
2,B23,0.77
3,B24,0.837
4,B25,0.855 and 0.82
5,B26,0.893
6,B27,0.804 and 0.79
7,B28,0.863 and 0.884
8,B29,0.83 and 0.872
9,B30,0.871
10,B31,0.9 and 0.889
11,B32,0.846 and 0.817 and 0.791
12,B33,0.8
13,B34,0.827
14,B35,0.849
15,B36,0.775
16,B37,0.687
17,B38,0.633
18,B39,0.769
19,B40,0.667
20,B41,0.654

# Biological target: HRgpA-6H (Porphyromonas gingivalis) (UniProt P28784)
# Assay: ELISA on coated HRgpA-6H, OD relative to parental Fab
row,Binder,Ratio OD(Variant)/OD(WT)
1,B1,0.947 fold and 0.921 fold and 0.949 fold
2,B2,0.917 fold
3,B3,0.983 fold and 0.86 fold
4,B4,0.988 fold
5,B5,0.958 fold
6,B6,0.963 fold and 0.965 fold and 0.977 fold
7,B7,0.97 fold
8,B8,0.807 fold
9,B9,0.997 fold
10,B10,0.873 fold
11,B11,0.961 fold
12,B12,0.921 fold
13,B13,0.915 fold
14,B14,0.914 fold
15,B15,0.911 fold and 0.806 fold
16,B16,0.886 fold
17,B17,0.879 fold
18,B18,0.823 fold and 0.806 fold and 0.814 fold
19,B19,0.805 fold
20,B20,0.821 fold
21,B21,0.91 fold

row,Binder,Ratio OD(Variant)/OD(WT)
1,B22,0.942 fold
2,B23,0.838 fold
3,B24,0.911 fold
4,B25,0.931 fold and 0.893 fold
5,B26,0.972 fold
6,B27,0.875 fold and 0.86 fold
7,B28,0.94 fold and 0.962 fold
8,B29,0.904 fold and 0.949 fold
9,B30,0.948 fold
10,B31,0.98 fold and 0.968 fold
11,B32,0.921 fold and 0.889 fold and 0.861 fold
12,B33,0.871 fold
13,B34,0.9 fold
14,B35,0.924 fold
15,B36,0.982 fold
16,B37,0.871 fold
17,B38,0.802 fold
18,B39,0.975 fold
19,B40,0.845 fold
20,B41,0.829 fold
